Measurements reported in patent publication US20230129095A1, “PEPTIDE INHIBITORS OF INTERLEUKIN-23 RECEPTOR AND THEIR USE TO TREAT INFLAMMATORY DISEASES” (Protagonist Therapeutics, Inc., priority 2020, published 2023).
*1 amine or outer side, *2 acyl side, *3 side chain or, on linkers, in order; H or OH if unused. Where a SMILES comes first, the peptide text is derived from it. Bridges are numbered along the chain shown (N, C = ends). [ ]: non-standard residue; d: D form. Trp(7-Ph) = N[C@@H](Cc1c[nH]c2c(-c3ccccc3)cccc12)C(=O)O; Abu(4-yl) = O=C([C@H](CC[*:3])N[*:1])[*:2]; 2Nal = N[C@@H](Cc1ccc2ccccc2c1)C(=O)O; AEF = NCCOc1ccc(C[C@H](N)C(=O)O)cc1; αMeK = C[C@](N)(CCCCN)C(=O)O; Abu = CC[C@H](N)C(=O)O

Experiments:
Stability in rat plasma = format: in vitro ADME; settings: both sexes, pooled, SD rat plasma, EDTA, 37° C., up to 24 hours, read-out: t1/2: Rat Plasma EDTA
Summary of the method: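 Peptides at 20 μM incubated at 37 °C in pooled SD rat EDTA plasma, sampled up to 24 h and quenched in acidified acetonitrile/methanol containing internal standard. LC-MS peak-area ratios expressed as % remaining versus time zero; half-life from first-order exponential decay fit.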

[1] = Stability in simulated intestinal fluid (SIF); format: in vitro ADME; settings: pH 6.8, 100 fold dilution of standard SIF concentration, 37° C., read-out: SIF t1/2 (converted)
Summary of the method: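 Peptides at 20 μM final were incubated at 37 °C in SIF (potassium phosphate with pancreatin, pH 6.8), and reactions were quenched with acetonitrile/1% formic acid at time points from 0 min to 24 h. Percent remaining relative to time 0 was determined by LC-MS/MS against an internal standard, and half-life came from a first-order decay fit.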

[2] = Stability in human fecal homogenate (anaerobic); format: in vitro ADME; settings: pH 6.8, 20% human fecal homogenate, 37° C., up to 24 hours, read-out: t1/2: Human Feces anaerobic
Summary of the method: (§1)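 Supernatant of 20% pooled fecal homogenate in anaerobic growth medium (pH 6.8, bile salts, cysteine) dosed to 20 μM compound, incubated anaerobically at 37 °C. Samples at 0 min–24 h quenched in acetonitrile/methanol, LC/MS/MS vs internal standard; half-life from first-order exponential fit of percent remaining relative to time 0.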

[3] = tested on: Natural killer (NK) cells; format: cell-based, human
Excerpt: Where not shown, data was not yet determined.

[4] = Stability in cynomolgus monkey fecal homogenate (anaerobic); format: in vitro ADME; settings: pH 6.8, 20% cynomolgus monkey fecal homogenate, 37° C., up to 24 hours, read-out: t1/2: Monkey Feces anaerobic (converted)
Summary of the method: as §1

[5] = target: T1, interleukin-23 receptor (IL-23R), human (human, UniProt Q5VWK5 24-629); assay: cell-based or functional assay
T1 sequence (looked up): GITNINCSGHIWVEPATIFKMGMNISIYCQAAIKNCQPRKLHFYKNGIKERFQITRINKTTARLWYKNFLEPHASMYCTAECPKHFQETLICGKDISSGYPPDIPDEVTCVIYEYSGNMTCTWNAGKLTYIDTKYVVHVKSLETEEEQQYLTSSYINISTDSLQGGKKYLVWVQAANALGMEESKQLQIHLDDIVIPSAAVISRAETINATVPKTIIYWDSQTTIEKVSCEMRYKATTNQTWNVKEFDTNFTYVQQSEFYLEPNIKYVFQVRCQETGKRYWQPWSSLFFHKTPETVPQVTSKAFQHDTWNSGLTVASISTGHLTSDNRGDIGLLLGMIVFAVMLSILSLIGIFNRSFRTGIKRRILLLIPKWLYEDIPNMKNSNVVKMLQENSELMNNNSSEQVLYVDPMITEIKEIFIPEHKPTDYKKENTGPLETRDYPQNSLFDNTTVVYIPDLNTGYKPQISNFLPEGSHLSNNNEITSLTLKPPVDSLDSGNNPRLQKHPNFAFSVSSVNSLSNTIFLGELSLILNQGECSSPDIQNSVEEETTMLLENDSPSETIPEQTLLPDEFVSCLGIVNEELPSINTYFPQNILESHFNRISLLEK

[6] = target: T1, interleukin-23 receptor (IL-23R), human; assay: cell-based or functional assay; remark: listed apart in the source

CC(=O)NCCCC[C@@H]1NC(=O)[C@H](Cc2c[nH]c3c(-c4ccccc4)cccc23)NC(=O)[C@H]([C@@H](C)O)NC(=O)[C@H](CCC(N)=O)NC(=O)[C@@H](NC(C)=O)CCSC[C@@H](C(=O)N[C@@H](Cc2ccc(OCCN)cc2)C(=O)N[C@@H](Cc2ccc3ccccc3c2)C(=O)N[C@@](C)(CCCCN)C(=O)N[C@@H](CCCCNC(C)=O)C(=O)N[C@@H](CC(N)=O)C(=O)N[C@H](CC(C)C)C(N)=O)NC1=O [Peptide 18, Ac-[Abu]-Q-T-[W(7-Ph)]-[Lys(Ac)]-[Cys]-Phe[4-(2-aminoethoxy)]-[2-Nal]-[a-MeLys]-[Lys(Ac)]-N-[(D)Leu]-NH2] (Ac-[Abu(4-yl)]QT[Trp(7-Ph)]K(Ac)C[AEF][2Nal][αMeK]K(Ac)N[dL]-NH2; thioether 1-6)
half-life at 20 μM (Stability in rat plasma): > 1440 min | half-life at 20 μM [1]: 1190 min | half-life at 20 μM [2]: > 1440 min | IC50 [3]: 6.28 nM | half-life at 20 μM [4]: > 1440 min

B1: Peptide No. 13 (SEQ ID No. 13) (peptide)
peptide: XNTXKXXXXENK
modifications: Ac-[Pen]-N-T-[W(7-Ph)]-[Lys(Ac)]-[Pen]-Phe[4-(2-aminoethoxy)]-[3Quin]-[THP]-E-N-[(D)Lys]-NH2; N-terminal acetyl, C-terminal amide; cyclized via Pen-Pen disulfide bond
NK Cell Assay IC50 (IFNgamma secretion by human NK cells stimulated with IL-23 and IL-18) [5]: 1.55 nM | pStat3 HTRF IC50 (DB cells IL23R pSTAT3 cell assay, 0.5 nM IL-23) [6]: 0.386 nM

B2: Peptide No. 15 (SEQ ID No. 15) (peptide)
peptide: XNTXKXXXXENL
modifications: Ac-[Pen]-N-T-[W(7-Ph)]-[Lys(Ac)]-[Pen]-Phe[4-(2-aminoethoxy)]-[3Quin]-[THP]-E-N-[(D)Leu]-NH2; N-terminal acetyl, C-terminal amide; cyclized via Pen-Pen disulfide bond
NK Cell Assay IC50 (IFNgamma secretion by human NK cells stimulated with IL-23 and IL-18) [5]: 2.44 nM | pStat3 HTRF IC50 (DB cells IL23R pSTAT3 cell assay, 0.5 nM IL-23) [6]: 0.186 nM

B3: Peptide No. 1 (SEQ ID No. 1) (peptide)
peptide: XNTXKXXXXKNL
modifications: Ac-[Pen]-N-T-[W(7-Ph)]-[Lys(Ac)]-[Pen]-Phe[4-(2-aminoethoxy)]-[2-Nal]-[a-MeLys]-[Lys(Ac)]-N-[(D)Leu]-NH2; N-terminal acetyl, C-terminal amide; cyclized via Pen-Pen disulfide bond
NK Cell Assay IC50 (IFNgamma secretion by human NK cells stimulated with IL-23 and IL-18) [5]: 4.3 nM | pStat3 HTRF IC50 (DB cells IL23R pSTAT3 cell assay, 0.5 nM IL-23) [6]: 0.518 nM

B4: Peptide No. 14 (SEQ ID No. 14) (peptide)
peptide: XNTXKXXXXKNK
modifications: Ac-[Pen]-N-T-[W(7-Ph)]-[Lys(Ac)]-[Pen]-Phe[4-(2-aminoethoxy)]-[3Quin]-[a-MeLys]-[Lys(Ac)]-N-[(D)Lys]-NH2; N-terminal acetyl, C-terminal amide; cyclized via Pen-Pen disulfide bond
NK Cell Assay IC50 (IFNgamma secretion by human NK cells stimulated with IL-23 and IL-18) [5]: 2.41 nM | pStat3 HTRF IC50 (DB cells IL23R pSTAT3 cell assay, 0.5 nM IL-23) [6]: 0.437 nM

B5: Peptide No. 16 (SEQ ID No. 16) (peptide)
peptide: XNTXKXXXXKNL
modifications: Ac-[Pen]-N-T-[W(7-Ph)]-[Lys(Ac)]-[Pen]-Phe[4-(2-aminoethoxy)]-[3Quin]-[a-MeLys]-[Lys(Ac)]-N-[(D)Leu]-NH2; N-terminal acetyl, C-terminal amide; cyclized via Pen-Pen disulfide bond
NK Cell Assay IC50 (IFNgamma secretion by human NK cells stimulated with IL-23 and IL-18) [5]: 2.9 nM | pStat3 HTRF IC50 (DB cells IL23R pSTAT3 cell assay, 0.5 nM IL-23) [6]: 0.365 nM

Ac-[Abu]QT[Trp(7-Ph)]K(Ac)C[AEF][2Nal][αMeK]K(Ac)N[dL]-NH2 (thioether 1-6) [Peptide No. 18 (SEQ ID No. 18)]
NK Cell Assay IC50 (IFNgamma secretion by human NK cells stimulated with IL-23 and IL-18) [5]: 6.28 nM | pStat3 HTRF IC50 (DB cells IL23R pSTAT3 cell assay, 0.5 nM IL-23) [6]: 0.993 nM
